Experimental data published in the supplement of paper PMC10567573.
± gives the standard deviation.

Assay: protein stability index of a GFP-peptide fusion (GPS, HEK-293T) (PSI 1-6); higher = more stable
[1] = treatment: DMSO, c terminus: a fixed tail appended
[2] = treatment: MLN4924 1 uM, 8 h, c terminus: a fixed tail appended
[3] = treatment: DMSO, c terminus: native
[4] = treatment: MLN4924 1 uM, 8 h, c terminus: native
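Also: 24-mer peptide tiles fused after GFP, lentivirally expressed, FACS-sorted into six equal bins by GFP/DsRed ratio, decoded by Illumina sequencing, PSI is the read-weighted mean bin number.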

Sequence	protein stability index [1]	protein stability index [2]	protein stability index [3]	protein stability index [4]
MQRMIQQFAAEYTSKNSSTQDPSQ [LCOR]	3.69 ± 0.41	3.68 ± 0.45		
DYSDHPSGGSYRDSYESYGNSRSA [RBMX]	4.43 ± 0.36	4.44 ± 0.26		
VSGKCEPIGCDGVLFSTHTLDKCG [ADAMTSL2]	3.41 ± 0.4	3.35 ± 0.29		
TCCYFKFIIEYYNIRPADSRWVRD [FBXO34]	2.84 ± 1.2	2.29 ± 0.54		
RAKEEERLNKLRLESEGSPETLTN [HACD3]	5.38 ± 0.23	5.28 ± 0.26		
DHKEPKEEINKNISDFGRQQLLPP [EHMT1]	5.1 ± 0.2	5.16 ± 0.21		
TYWQCGQYLGVGPGAHGRFMPQGA [RSAD1]	2.27 ± 0.26	2.65 ± 0.49		
LRVGIPENAPIGTLLLRLNATDPD [PCDHGC5]	2.92 ± 0.18	3.22 ± 0.32		
TSSTFGLQDGNLRAPHKESTLPRS [CHCHD6]	4.42 ± 0.34	4.61 ± 0.14		
IERANNVKYGLAATVWSSNVGRVH [ALDH8A1]	2.66 ± 0.29	2.8 ± 0.25		
TQLTQNAVSCPYLPSNLLKKFRSS [KCNA4]	3.32 ± 0.37	3.39 ± 0.2		
SEALASTRILKHSPESSRGQCGEN [GLIPR2]	5.29 ± 0.21	4.93 ± 0.25		
HNQIAIYAHQPRTADEIPMEPGDI [FUT8]	4.6 ± 0.19	4.52 ± 0.18		
KCCGMRNTDVSMENMVTVGFFSCM [KCNK9]	2.59 ± 0.48	2.51 ± 0.44		
PLAVENQAGGEGAGGELGISLNMC [PBXIP1]	4.22 ± 0.25	4.12 ± 0.24		
CLMLLMGTVHCQIVSTQITRPSGN [PHTF1]	3.12 ± 0.47	2.84 ± 0.47		
LQVRGYPEEKKEEEGSANRRPEDQ [CHGA]	5.61 ± 0.21	5.7 ± 0.25		
AYMDRRDHPLPEVAHVKHLSASQK [COX4I1]	4.34 ± 0.32	4.6 ± 0.32		
SKLSRKYVKAKKSIDKDEEFAGSS [FAN1]	4.84 ± 0.14	4.64 ± 0.31		
FVDFFVRLFTQLKFGVVQTSVEEC [CLCN6]	3.59 ± 0.27	3.07 ± 0.68		
LICEGLYPASIVDEPTFKVLLKTA [ZBED1]	2.25 ± 0.28	2.31 ± 0.24		
LRFLYSDEVQIGPETVMTTLYTAK [BTBD1]	2.48 ± 0.38	1.99 ± 0.24		
TTEVNAWLVHRDPEGSVSGSQPNS [NFE2L1]	4.33 ± 0.17	4.64 ± 0.35		

Sequence	protein stability index [1]	protein stability index [2]	protein stability index [3]	protein stability index [4]
KNTTYDLIANIVHDGKPSEGSYRI [USP39]	2.62 ± 0.4	2.52 ± 0.32		
DAKDAARDMNGKSLDGKAIKVEQA [RBMX]	5.36 ± 0.41	5.37 ± 0.39		
LVFPSSSSSSSSQAPGQPPGNQAE [ZBTB22]	5.06 ± 0.2	4.71 ± 0.067		
SYRIHNGQKLVVPGLLGSMALSNH [FBXO3]	2.35 ± 0.27	2.43 ± 0.31		
LKPRPEPPKKPSNWRRKHEEFIAT [ZC2HC1A]	3.47 ± 0.22	3.56 ± 0.17		
REDITEPAICALRHLTSRHQEAEM [CTNNB1]	4.58 ± 0.41	4.4 ± 0.43		
PVPATAPSPAPAVAAAAAATTAAT [SNAP91]	5.32 ± 0.16	5.25 ± 0.097		
YRQKLLMFLEISSYYDPGRLICDF [VPS39]	2.92 ± 0.55	2.7 ± 0.56		
VSGCPEDLTVGRAPTADDDDDDHD [NOL4L]	5.62 ± 0.31	5.63 ± 0.28		
YLPRDFSTYRPLPDPSVWSRRYTE [MYORG]	2.64 ± 0.17	2.82 ± 0.29		
INRCSVLRQLGCKDGKNWNSNQAT [SPOPL]	2.65 ± 0.28	2.78 ± 0.28		
SVDIWAIGCVFAELLTGQPLWPGK [CDKL4]	2.6 ± 1.3	3.02 ± 0.97		
LLLSILNPTRQDESIQRIAVHLCN [ZER1]	2.75 ± 0.42	2.42 ± 0.45		
TQKLSHSTKPSGSPLEEKHDQCKC [MATN2]	5.15 ± 0.38	4.94 ± 0.29		
MSVNVNRSVSDQFYRYKMPRLIAK [EIF5]	2.52 ± 0.14	2.77 ± 0.29		
GGFGGGVGGGFGGGFGGGDGGLLS [KRT15]	3.4 ± 0.71	3.98 ± 0.14		
EEHLSPLDFLHSANFSLGSINQRL [RNF180]	3.17 ± 0.38	3.41 ± 0.24		
SSAASLIDFLRVVRNQQSLAVSNM [PTPN9]	2.26 ± 0.43	2.1 ± 0.26		
CQACRFMKCLKVGMLKEGVRLDRV [ESRRG]	2.6 ± 0.45	2.04 ± 0.16		
LVLKVLWNDFLMCYSSRPLLCWSV [SLC19A2]	3.19 ± 0.48	3.45 ± 0.53		
PKDIYSSFGFPRTVKHIDAALSEE [MMP1]	3.9 ± 0.29	4.04 ± 0.23		
MEDEMPKTLYVGNLSRDVTEALIL [TIA1]	2.41 ± 0.36	2.63 ± 0.28		
KVNLCGHWYYSKACCRSCRPPHS [ADAMTSL2]			2.86 ± 0.57	3.17 ± 0.54

Sequence	protein stability index [1]	protein stability index [2]	protein stability index [3]	protein stability index [4]
DDAGTSGGPSSPPSDPPAMSPGPL [C2CD2L]	5.38 ± 0.38	5.37 ± 0.32		
CGTPLRKSNFRVQLFEDPTVDKEV [MNAT1]	3.84 ± 0.09	3.75 ± 0.16		
DDEEVDTHFASQEFFSANAISDQL [ADAMTSL2]	5.27 ± 0.23	5.21 ± 0.15		
PTESEPVTINIQDLLSCSNFAVQH [MATN2]	3.56 ± 0.5	3.37 ± 0.43		
DETLSSSHQKCPQLGGPEASGGLV [PLEKHN1]	4.97 ± 0.1	4.8 ± 0.31		
EESEPGTLVGNVAQDLGLKMTDLL [PCDHGC5]	4.34 ± 0.081	4.29 ± 0.55		
TSRRSGVGLAVVNGQLMAVGGFDG [KLHL20]	2.99 ± 0.23	2.94 ± 0.41		
VVGFDLELGQAVEVIYPQHSKLTD [DENND6A]	2.03 ± 0.097	2.62 ± 0.3		
GNATLLRIIYQNKCMRNGPNALIA [EDNRA]	2.66 ± 0.79	2.51 ± 0.32		
SDAEAVSTRWEVIAEDGTKEIESQ [TAF7L]	5.42 ± 0.12	5.48 ± 0.31		
FYIGKYFGGVLEYFMIQALNQKTS [RHOBTB3]	2.96 ± 0.33	3.31 ± 0.58		
HCPDCGQQWFPSLELGHWLYQTEL [TOR1AIP2]	2.31 ± 0.57	2.52 ± 0.41		
REEQQLLASTSKPVVKLLHNRSNN [KCTD13]	4.75 ± 0.23	4.89 ± 0.14		
SFRQGMHLTRHQRTHTGEKPYKCT [ZNF263]	3.57 ± 0.65	3.7 ± 0.49		
TSIGMPSLMYRSPPGAEEPQAPPA [RETREG3]	5.12 ± 0.12	4.92 ± 0.07		
FPRLNRNKYMVTDGAAYIGNFDWV [PLD5]	2.32 ± 0.89	2.32 ± 0.23		
SCRELLRIADKFTQHNFQEVMESE [KLHL20]	2.17 ± 0.14	2.19 ± 0.06		
FRQLCYQETPGPREALTRLQELCY [ZSCAN9]	2.48 ± 0.14	2.62 ± 0.25		
PPARGPRMSYGGSTCHAYSNTRDR [RBMY1A1]	4.1 ± 0.098	4.07 ± 0.12		
YGMQTQNYPKGGLLDSMCPASTPS [ETS2]	3.79 ± 0.19	3.64 ± 0.18		
MHGNEALGRELMLQLSEFLCEEFR [CPN1]	2.24 ± 0.49	2.67 ± 0.22		
EDILNDPSQSEVMGEPHLMVEYKL [POMP]	3.7 ± 0.17	3.72 ± 0.18		
VVEEAKCCCFFKRKRKKTAQRHK [CSNK1G1]			4.18 ± 0.33	4.69 ± 0.42

Sequence	protein stability index [1]	protein stability index [2]	protein stability index [3]	protein stability index [4]
PQPLSFKEPPLLLGVLHPNTKLRQ [APMAP]	3.48 ± 0.17	3.59 ± 0.2		
ITAGGENVPPIPVETLVKKKIPII [ACSBG2]	3.71 ± 0.32	3.96 ± 0.34		
HCRKCGQAVCGKCSSKRSSYPVMG [WDFY1]	3.88 ± 0.3	3.91 ± 0.34		
LGMVTPVNDLRGSDSIAYDKGEKL [ADD1]	4.62 ± 0.3	4.9 ± 0.089		
MGTSHGITRPSPRRSNSPDKFKRP [CCDC6]	4.71 ± 0.087	4.89 ± 0.11		
MATATPVPPRMGSRAGGPTTPLSP [LMNB1]	4.21 ± 0.17	4.24 ± 0.29		
AIPIEIKSIDDTSNFDDFPESDIL [STK38L]	4.67 ± 0.17	4.84 ± 0.11		
ERMTTREKKVLEAGMGKVTSASFG [HDAC6]	4.1 ± 0.14	4.19 ± 0.14		
YKSVLQAVQKTDEGHPFKAYLELE [RTN1]	3.43 ± 0.12	3.54 ± 0.21		
NDTKKMYAMKYMNKQKCVERNEVR [STK32A]	3.71 ± 0.2	3.97 ± 0.33		
PGAGVPSGSGGTVAPATMGSARSH [ZBTB22]	4.75 ± 0.16	4.8 ± 0.15		
DRTWTLCGTPEYLAPEVIQSKGHG [PRKX]	3.91 ± 0.48	3.97 ± 0.35		
CNECGKAFRWGAHLVQHQRIHSGE [ZNF232]	4.44 ± 0.56	4.53 ± 0.26		
QWLKDKILSEEGRRQQAKLKELQA [KCNAB2]	3.13 ± 0.56	3.32 ± 0.13		
VLRVEQQPHLPLLSTLAGIRVMVH [SCNN1D]	2.31 ± 0.25	2.26 ± 0.082		
KNTSEQDQPMGGWEMIRKIGDTSV [LMNB1]	4.27 ± 0.18	4.43 ± 0.22		
GEQDCCGERVVINISGLRFETQLK [KCNA3]	2.52 ± 0.21	2.57 ± 0.35		
SKETRLTLMEEVLLLGLKDREGYT [GOLPH3]	2.8 ± 0.22	2.75 ± 0.28		
PKVEYVWRNIILMSLLHLGALYGI [SCD]	3.26 ± 0.5	3.48 ± 0.06		
PGYLPYSPEPPSLYGALNPQYEFK [IRX6]	2.87 ± 0.36	3.16 ± 0.33		
